Our source for the % coverage and total peptides values is patent US20130059806A1.

Experiment [1] deals with biotin-FLAG-tagged TR2 and TR4 (biotin-FLAG-TR2 and biotin-FLAG-TR4 co-expressed in BirA-expressing MEL cells) (UniProt Q505F1). The experiment can be described thus: streptavidin purification of biotin-tagged TR2/TR4 from MEL nuclear extract, mass spectrometry, experiment #3.
Experiment [2] shares this target. The experiment can be described thus: streptavidin purification of biotin-tagged TR2/TR4 from MEL nuclear extract, mass spectrometry, experiment #1.
For experiment [3] the target is unchanged. The experiment can be described thus: streptavidin purification of biotin-tagged TR2/TR4 from MEL nuclear extract, mass spectrometry, experiment #2.

Sequence of biotin-FLAG-tagged TR2 and TR4 (biotin-FLAG-TR2 and biotin-FLAG-TR4 co-expressed in BirA-expressing MEL cells) (Q505F1 whole entry, chain 1 of 2): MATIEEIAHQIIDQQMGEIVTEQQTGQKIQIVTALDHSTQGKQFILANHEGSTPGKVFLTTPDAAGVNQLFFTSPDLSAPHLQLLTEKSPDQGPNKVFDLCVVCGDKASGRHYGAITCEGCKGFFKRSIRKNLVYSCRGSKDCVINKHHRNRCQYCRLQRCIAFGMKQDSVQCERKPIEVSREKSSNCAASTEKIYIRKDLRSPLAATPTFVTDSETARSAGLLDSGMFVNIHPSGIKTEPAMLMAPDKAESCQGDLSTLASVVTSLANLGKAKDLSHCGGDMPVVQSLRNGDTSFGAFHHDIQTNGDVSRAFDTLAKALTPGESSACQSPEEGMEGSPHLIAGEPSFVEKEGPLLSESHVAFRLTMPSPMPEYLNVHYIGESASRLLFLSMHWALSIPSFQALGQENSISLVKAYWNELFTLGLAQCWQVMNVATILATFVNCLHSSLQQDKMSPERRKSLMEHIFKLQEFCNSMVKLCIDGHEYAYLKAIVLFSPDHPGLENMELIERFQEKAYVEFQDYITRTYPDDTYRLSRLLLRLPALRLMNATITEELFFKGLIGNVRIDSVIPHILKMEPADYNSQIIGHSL
Sequence of biotin-FLAG-tagged TR2 and TR4 (biotin-FLAG-TR2 and biotin-FLAG-TR4 co-expressed in BirA-expressing MEL cells) (P49117 whole entry, chain 2 of 2, further chain): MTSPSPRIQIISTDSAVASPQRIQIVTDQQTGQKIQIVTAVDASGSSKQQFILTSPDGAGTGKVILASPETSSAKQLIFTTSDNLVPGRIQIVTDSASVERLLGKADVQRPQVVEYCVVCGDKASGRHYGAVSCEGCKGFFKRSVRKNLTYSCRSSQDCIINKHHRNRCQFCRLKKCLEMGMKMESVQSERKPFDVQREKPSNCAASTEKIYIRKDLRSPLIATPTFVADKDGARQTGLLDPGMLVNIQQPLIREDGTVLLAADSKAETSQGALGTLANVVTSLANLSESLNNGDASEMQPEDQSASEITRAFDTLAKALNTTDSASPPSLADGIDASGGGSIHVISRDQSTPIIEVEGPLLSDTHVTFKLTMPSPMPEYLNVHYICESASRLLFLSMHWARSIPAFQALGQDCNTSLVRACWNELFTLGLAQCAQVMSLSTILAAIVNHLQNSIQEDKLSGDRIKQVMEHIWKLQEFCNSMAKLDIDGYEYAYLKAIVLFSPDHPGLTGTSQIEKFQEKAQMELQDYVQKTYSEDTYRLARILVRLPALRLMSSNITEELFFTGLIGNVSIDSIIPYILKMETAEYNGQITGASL

As for “BRG1 (from UniProt Q3TKT4 1-1613) (enzyme)”, in experiment [1], the % coverage was 0.8% and the total peptides is 1 peptides. In experiment [2], this substance yielded a % coverage of 1.4% and a total peptides of 2 peptides.
As to CAPER (from UniProt Q8VH51 2-530), the % coverage in experiment [1] stood at 2.6%; in experiment [3], 4.9%. For the same substance, the total peptides was determined as 1 peptides in experiment [1] and 2 peptides in experiment [3].
For “DNA methyltransferase 1 (DNMT1) (from UniProt P13864 1-1620) (enzyme)”, the results for the % coverage in experiment [1], in experiment [2] and in experiment [3] were 10.4%, 13.5% and 10.1%, respectively. For the same substance, the values for the total peptides in experiment [1], in experiment [2] and in experiment [3] were 15 peptides, 35 peptides and 14 peptides, respectively.
For the substance “HCF1 (Host Cell Factor 1) (from UniProt Q61191 2-2045)”, the % coverage came to 0.8% in experiment [1], 2.5% in experiment [2] and 1.4% in experiment [3]. For the same substance, the values for the total peptides in experiment [1], in experiment [2] and in experiment [3] were 1 peptides, 4 peptides and 2 peptides, respectively.
Turning to “HDAC1 (from UniProt O09106 1-482) (enzyme)”, the % coverage in experiment [1] was found to be 8.9%; in experiment [2] it was 4.4%. The total peptides in experiment [1] is 3 peptides; in experiment [2], 2 peptides.
In experiment [1], “HDAC2 (from UniProt P70288 1-488) (enzyme)” displayed a % coverage of 4.9% and a total peptides of 2 peptides.
Regarding MTA1 (from UniProt Q8K4B0 1-715), the results for the % coverage in experiment [1], in experiment [2] and in experiment [3] were 1.8%, 8.7% and 1.7%, respectively. Moreover, the values for the total peptides in experiment [1], in experiment [2] and in experiment [3] were 1 peptides, 7 peptides and 1 peptides, respectively.
On to MTA2 (from UniProt Q9R190 1-668), for which, in experiment [2], the % coverage was 2.8% and the total peptides stood at 2 peptides.
Turning to “Mi2β (from UniProt Q6PDQ2 1-1915) (enzyme)”, the % coverage came to 4.4% in experiment [1], 1.1% in experiment [2] and 5.3% in experiment [3]. Further, the figures for the total peptides in experiment [1], in experiment [2] and in experiment [3] were 6 peptides, 1 peptides and 4 peptides, respectively.
Consider NonO (from UniProt Q99K48 1-473), for which the figures for the % coverage in experiment [1], in experiment [2] and in experiment [3] were 11%, 7.8% and 17.8%, respectively. The results for the total peptides in experiment [1], in experiment [2] and in experiment [3] were 7 peptides, 10 peptides and 9 peptides, respectively.
For PSPC1 (from UniProt Q8R326 1-523), the % coverage in experiment [1] was 4.6%; in experiment [2], 3.3%; in experiment [3] it was 7.8%. Moreover, the total peptides in experiment [1] was determined as 2 peptides; in experiment [2] it was 1 peptides; in experiment [3], 3 peptides.
In experiment [2], RbAp46 (from UniProt Q60973 2-425) showed a % coverage of 2% and a total peptides of 2 peptides. Moreover, in experiment [3], the % coverage was 6.8% and the total peptides is 3 peptides.
For RbAp48 (from UniProt Q60972 2-425), the % coverage in experiment [1] stood at 1.9%; in experiment [2], 2%; in experiment [3], 6.3%. Moreover, the total peptides in experiment [1] was found to be 1 peptides; in experiment [2] it was 2 peptides; in experiment [3] it was 3 peptides.
With SFPQ (from UniProt Q8VIJ6 1-699), the % coverage turned out to be 18.2% in experiment [1], 15.3% in experiment [2] and 15.9% in experiment [3]. Moreover, the total peptides in experiment [1] amounted to 10 peptides; in experiment [2], 12 peptides; in experiment [3], 8 peptides.
Consider Sin3A (from UniProt Q60520 1-1274), for which, in experiment [1], the % coverage amounted to 1.1% and the total peptides worked out at 1 peptides.
As to “transcriptional intermediary factor (TIF)-1beta (from UniProt Q62318 2-834)”, the % coverage in experiment [1] is 1.8%; in experiment [2], 12.7%; in experiment [3] it was 9%. The total peptides came to 1 peptides in experiment [1], 16 peptides in experiment [2] and 6 peptides in experiment [3].
